Assay results from the nanobody polyreactivity screen of Harvey et al. (2022).

Experiment: yeast display, Sf9 membrane polyspecificity reagent, FACS + sequencing; frameworks hold sequencing errors
Summary of the method: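 A synthetic nanobody library was expressed on Saccharomyces cerevisiae BJ5465 by galactose induction for 36–48 hours. The library was stained for 1 hour at 4 °C with 10% biotinylated, detergent-solubilized Sf9 membrane reagent and enriched with streptavidin microbeads before FACS. Low and high (top ~1%) gates were set on anti-HA fluorescence for expression and streptavidin fluorescence for reagent binding, and each polyreactivity label reflects the gate of origin.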

| Sequence | polyreactivity (PSR sort gate) |
| --- | --- |
| QVQLVESGGGLVQAGGSLRLSCAASGFIFTRNRMGWYRHAPGKETELVAAISSGGRTYYADSVKGRFTISRDNAMNTVYLQMNSLIPEDTAVYYCNAGNRGVYRYDYWGQGTQVNVSS | high polyreactivity |
| QVQLVESGGGLVQAGGSLRLSCAASGFIFTRYAMGGYRHAPGKERELVAAISWSGGRTYYADSVKGRFTISRDNANNTVYLQMNSLKPEDTAVYYCAARWVRIRFDYWGQGTQVAVSS | high polyreactivity |
| QVQLVESGGGLVQAGGSLRLSCAASGFIFTRYAMGWYRQAPGKERELVAAISWSGGSTYYADSVKGRFTISRDNAKNTVYLQMNSLKPEDTAVYYCAADGSDSYDYWGQGTQVTVSS | low polyreactivity |
| QVQLVESGGGLVQAGGSLRLSCAASGFIFTVNAMGRYRQAPGKERELVAAITQSGGNRSYADSVKGRFTISSDKAKNTVYLQMNSLKPEDTAVYYCNASSDTSRYGVSTYYYWGQGTQVTVSS | low polyreactivity |
| QVQLVESGGGLVQAGGSLRLSCAASGFIFVDYDMVWYRQAPGKERELVAAISARGGSTNYADSVKGRFTISRDNAKNTVYLQMNSLKPEDTAVYYCAADTPVWSGYWYDYWGQGTQVTVSS | low polyreactivity |
| QVQLVESGGGLVQAGGSLRLSCAASGFIFVGNDMGWYRQAPGKERELVAAISSGGTTNYADSVKGRFTISRDNAKNTVYLQMNSLIPEDTAVYYCAADYDYRQGYDSVHLDYWGQGTQVTVSS | low polyreactivity |
| QVQLVESGGGLVQAGGSLRLSCAASGFIFVGYAMGWYRQAPGKERELVAAISWDGGSTDYADSVKGRFTISRDNAKNTVYLQMNSLKPEDTAVYYCAASYQYWGFWYEYWGQGTQVTVSS | high polyreactivity |
| QVQLVESGGGLVQAGGSLRLSCAASGFIFVKYDMGWYRQAHGKERELVAAITTSGTGTFYADSVKGRFTISRDNAKNTVDLQMNSLKPEDTAVYYCNSLGHPGDDWGQGTQVTVSS | low polyreactivity |
| QVQLVESGGGLVQAGGSLRLSCAASGFIFVNYAMGWYRQAPGKERELVAAISRNGGRTYYADSVKGRFTISRDNAKNTVYCQMNSLTPEDTAVYYCTAELSGKRDYWGQGTQVTVSS | high polyreactivity |
| QVQLVESGGGLVQAGGSLRLSCAASGFIFVNYMGWYRQAPGKERELVAAISRGGSTNYADSVKGRFTISRDNAKNNVFLQMNSLKPEDTAVYYCAAETWYSGYTYDYWGQGTQVTVSS | low polyreactivity |
| QVQLVESGGGLVQAGGSLRLSCAASGFIFVPNAMGWYRQAPGKERELVAAITWSGSSTYYADSVKGRFTISRDNAKNTVYLQINSLKPEDTAVYYCAADYPVWDEFYDSYEYWGQGTQVTVSS | high polyreactivity |
| QVQLVESGGGLVQAGGSLRLSCAASGFIFVPYAMGWDRQAPGNERELVAAITWSGAATYYADSVQGRFTISRDNAKNTVYLQLNSLKPEDTAVYYCAAENWLPQTGGYYWYDSWGQGTQVTVSS | high polyreactivity |
| QVQLVESGGGLVQAGGSLRLSCAASGFIFVPYAMGWYRQAPGKERELVAAITWSGASTYYADSVKGRFTISRDNAKNTVYLQMNRLKPEDTAVYYCAAENWLPQTGGYYWYDYWGQGTQVTVSS | high polyreactivity |
| QVQLVESGGGLVQAGGSLRLSCAASGFIFVRNTMGWYRQAPGKERELVASISRRGRTTYYADSVKGRFTISRDNAKNTVSLQMNSLKPEDTAVYYCNARYRVPKQGDYWGQGTQVTVSS | high polyreactivity |
| QVQLVESGGGLVQAGGSLRLSCAASGFIFVRYAMGWSRPAPGKERELVDAISGSGGRTYYADSVKGRFTISRDNAKNTVYLQMNSLIPEDTAVYYCNVKSYTYGYLPYDYWGQGTQVTVSS | high polyreactivity |
| QVQLVESGGGLVQAGGSLRLSCAASGFIFVRYAMGWYRQAPGKERELVASITRSGGSTYYADSVKGRFTISRDNAKNTVYLQMNSLKPEDTAVYYCAASYYRSRGSTYGYWGQGTQVTVSS | high polyreactivity |
| QVQLVESGGGLVQAGGSLRLSCAASGFIFVRYTMGWYRQAPGKERELVAAISRSSDSTYYADSVKGRFSISRDNAKNTVYLQMNSLKPEVTAVYYCAAFSGFSPFRFYYWGQGTQVTVSS | high polyreactivity |
